Test results from PMC9028814.

Target: Acid-solubilized type I bovine collagen (bovine) (UniProt P02453)
Assay: SPR

UniProt P02453, sequence (P02453 162-1217, chain 1 of 2): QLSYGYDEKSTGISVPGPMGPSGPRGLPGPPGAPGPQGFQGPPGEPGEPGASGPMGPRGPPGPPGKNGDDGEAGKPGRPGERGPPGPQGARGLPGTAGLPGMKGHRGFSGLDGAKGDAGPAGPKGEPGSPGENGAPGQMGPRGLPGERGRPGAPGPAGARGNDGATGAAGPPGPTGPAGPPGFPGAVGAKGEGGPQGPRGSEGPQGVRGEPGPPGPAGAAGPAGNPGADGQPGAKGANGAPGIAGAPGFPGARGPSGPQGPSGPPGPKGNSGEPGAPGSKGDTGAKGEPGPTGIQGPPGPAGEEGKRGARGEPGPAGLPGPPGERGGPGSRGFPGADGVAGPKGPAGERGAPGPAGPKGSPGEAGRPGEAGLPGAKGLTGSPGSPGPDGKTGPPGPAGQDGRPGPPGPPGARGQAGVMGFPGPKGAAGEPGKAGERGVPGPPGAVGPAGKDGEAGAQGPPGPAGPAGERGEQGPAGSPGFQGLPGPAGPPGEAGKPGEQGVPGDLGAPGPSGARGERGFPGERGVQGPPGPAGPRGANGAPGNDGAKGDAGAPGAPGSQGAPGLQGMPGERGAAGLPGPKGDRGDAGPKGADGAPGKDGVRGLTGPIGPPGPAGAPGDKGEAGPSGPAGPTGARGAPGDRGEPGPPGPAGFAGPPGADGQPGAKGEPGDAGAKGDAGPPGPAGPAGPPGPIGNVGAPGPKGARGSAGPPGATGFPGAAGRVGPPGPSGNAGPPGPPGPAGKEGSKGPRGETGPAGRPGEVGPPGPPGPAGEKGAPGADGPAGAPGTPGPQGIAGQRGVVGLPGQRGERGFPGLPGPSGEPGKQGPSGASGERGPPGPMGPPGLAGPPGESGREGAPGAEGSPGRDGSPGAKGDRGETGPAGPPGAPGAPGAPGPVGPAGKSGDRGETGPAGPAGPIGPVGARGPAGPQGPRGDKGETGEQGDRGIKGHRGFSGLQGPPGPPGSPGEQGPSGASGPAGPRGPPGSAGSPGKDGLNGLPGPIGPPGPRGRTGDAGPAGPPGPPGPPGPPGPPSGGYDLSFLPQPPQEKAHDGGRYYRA
UniProt P02453, sequence (P02465 80-1117, chain 2 of 2, further chain): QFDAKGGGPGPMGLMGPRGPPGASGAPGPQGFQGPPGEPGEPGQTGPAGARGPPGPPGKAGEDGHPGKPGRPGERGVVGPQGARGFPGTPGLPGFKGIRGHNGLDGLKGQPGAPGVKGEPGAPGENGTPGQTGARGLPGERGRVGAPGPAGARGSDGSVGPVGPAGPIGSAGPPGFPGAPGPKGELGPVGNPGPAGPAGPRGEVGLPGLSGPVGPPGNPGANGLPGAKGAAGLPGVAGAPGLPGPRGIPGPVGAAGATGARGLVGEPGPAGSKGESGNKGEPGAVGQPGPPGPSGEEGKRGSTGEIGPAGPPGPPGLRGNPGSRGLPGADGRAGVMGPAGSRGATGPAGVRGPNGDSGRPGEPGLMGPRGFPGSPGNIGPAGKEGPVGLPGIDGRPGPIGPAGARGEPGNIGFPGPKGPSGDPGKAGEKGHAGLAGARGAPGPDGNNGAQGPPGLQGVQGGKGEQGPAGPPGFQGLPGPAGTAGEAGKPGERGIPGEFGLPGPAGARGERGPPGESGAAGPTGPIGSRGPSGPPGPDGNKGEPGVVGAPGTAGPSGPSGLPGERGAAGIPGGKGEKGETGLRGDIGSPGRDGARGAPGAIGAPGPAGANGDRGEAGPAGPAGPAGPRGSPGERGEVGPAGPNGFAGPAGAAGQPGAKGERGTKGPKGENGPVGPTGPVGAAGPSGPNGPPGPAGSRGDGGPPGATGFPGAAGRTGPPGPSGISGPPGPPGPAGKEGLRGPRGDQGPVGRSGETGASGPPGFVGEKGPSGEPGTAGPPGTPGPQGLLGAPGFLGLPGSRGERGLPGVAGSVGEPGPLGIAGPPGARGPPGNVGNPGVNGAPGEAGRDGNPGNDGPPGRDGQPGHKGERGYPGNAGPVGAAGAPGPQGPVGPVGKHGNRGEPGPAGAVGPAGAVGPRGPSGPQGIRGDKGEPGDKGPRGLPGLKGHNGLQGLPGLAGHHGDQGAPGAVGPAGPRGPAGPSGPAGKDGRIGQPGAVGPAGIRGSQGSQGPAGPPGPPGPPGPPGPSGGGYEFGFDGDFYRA

Row | koff | kon | Substance
1 | 0.00073 s⁻¹ | – | Human plasma von Willebrand factor (from UniProt P04275 764-2813) (natural protein)
2 | 0.000932 s⁻¹ | 2.36e+06 M⁻¹ s⁻¹ | Recombinant wild type von Willebrand factor (from UniProt P04275 764-2813) (natural protein)
